The results in this text go back to publication PMC6154639 (Molecules : A Journal of Synthetic Chemistry and Natural …, 2017).

The target of one data set is T1, PaF4′OMT (Plagiochasma appendiculatum, UniProt A0A1X9Y2Y6).
T1 construct: pET32a fusion with N-terminal His6 tag kept (about 60 kDa on SDS-PAGE); E. coli BL21(DE3)
Kind of data set: HPLC product quantification, Michaelis-Menten fit. In kind it is biochemical. The conditions noted are these: substrate inhibition by luteolin; SAM as methyl donor; pH 7.5, 37 °C. The source says:
HPLC product quantification, Michaelis-Menten fit on PaF4′OMT

Substrate in data set [1]: O=c1cc(-c2ccc(O)c(O)c2)oc2cc(O)cc(O)c12
Kind of data set: HPLC product quantification, Michaelis-Menten fit. In kind it is biochemical, Plagiochasma appendiculatum. The conditions noted are these: SAM as methyl donor, no Mg2+ needed, pH 7.5, 37 °C.

Substrate in the data set “purified protein”: O=c1cc(-c2ccc(O)cc2)oc2cc(O)cc(O)c12
Kind of data set: purified protein. The following applies: SAM as methyl donor, no Mg2+ needed, pH 7.5, 37 °C.

On to `O=c1cc(-c2ccc(O)c(O)c2)oc2cc(O)cc(O)c12` [luteolin], for which the “Ki” value on PaF4′OMT stood at 292.8 ± 69.03 µM.

B1: PaF4′OMT (Plagiochasma appendiculatum) (protein)
chain: MAVSTNGKTSEGVSDVSRTKNITNGNGMDMSVSANVASIGSVSATPLSPEDKRDHVVAINFLLGWVQTWALKAVVTMRIPDIISKAPMDALTAREIISQIQCKNPSNAVPLLERLMRFMVCKGFFSESVNGENEIAYELNGVSKMYVTDHEMSVVEWVNVAFHRSGIPALTRMHEAITEDVCPWDQAHGMPIYAHNPKFPELGDFFHKAMIVHSNFLTKILAEEYEGFKDFKVLVDVGGSLGNNLALILRFHPHLRGINFDMPSVIAGAPSFPGVEHVGGNFYESVPSGDAIMLMAILHNNSDENCVKILRSVHAALPEDGKLIVAEYIMTNEADHNGERIRLLDMLMLVQFRGGEERTFEHHKTLYEAAGFRHYKLIKTSGPMDIIEVRK
notes: pET32a fusion with N-terminal His6 tag kept (about 60 kDa on SDS-PAGE); E. coli BL21(DE3)
A word on the Km: it is the substrate concentration at which the rate is half of its maximum. Usually Vmax stands for the rate approached at saturating substrate. As usually defined, the kcat is the number of substrate molecules converted per active site and unit of time at saturation. Take B1: in data set [1], the Km came to 52.1 ± 10.54 µM, the Vmax is 0.111 µmol/min/mg and the kcat was 0.08 ± 0.009 s⁻¹. Also, in “purified protein”, the Km was 31.0 ± 5.90 µM, the Vmax amounted to 0.163 µmol/min/mg and the kcat came out at 0.117 s⁻¹.
